Test results taken from US20120253009A1 (Amgen, published 2012).
Changes are numbered by the printed parent chain.

B1: Fc-Loop (Asym) (SEQ ID NO: 35) (Fc fusion)
chain: MDKTHTCPPCPAPELLGGPSVFLFPPKPKDTLMISRTPEVTCVVVDVSHEDPEVKFNWYVDGVEVHNAKTKPREEQYNSTYRVVSVLTVLHQDWLNGKEYKCKVSNKALPAPIEKTISKAKGQPREPQVYTLPPSRDELGGGGQGCSSGGPTLREWQQCRRMQHSGGTKNQVSLTCLVKGFYPSDIAVEWESNGQPENNYKTTPPVLDSDGSFFLYSKLTVDKSRWQQGNVFSCSVMHEALHNHYTQKSLSLSPGK
B2: Fc-Loop (Asym) (SEQ ID NO: 5) (Fc fusion)
chain: B1 chain with R160V
B3: Fc-Loop (Sym) (SEQ ID NO: 35) (Fc fusion)
chain: MDKTHTCPPCPAPELLGGPSVFLFPPKPKDTLMISRTPEVTCVVVDVSHEDPEVKFNWYVDGVEVHNAKTKPREEQYNSTYRVVSVLTVLHQDWLNGKEYKCKVSNKALPAPIEKTISKAKGQPREPQVYTLPPSRDELGGQGCSSGGPTLREWQQCRRMQHSGGTKNQVSLTCLVKGFYPSDIAVEWESNGQPENNYKTTPPVLDSDGSFFLYSKLTVDKSRWQQGNVFSCSVMHEALHNHYTQKSLSLSPGK
B4: Fc-Loop (Sym) (SEQ ID NO: 5) (Fc fusion)
chain: B3 chain with R158V
B5: Fc-Loop (Sym) (SEQ ID NO: 6) (Fc fusion)
chain: B3 chain with M160A

Target: T1, human mpl receptor (human, UniProt P40238 26-635)
T1 sequence (looked up): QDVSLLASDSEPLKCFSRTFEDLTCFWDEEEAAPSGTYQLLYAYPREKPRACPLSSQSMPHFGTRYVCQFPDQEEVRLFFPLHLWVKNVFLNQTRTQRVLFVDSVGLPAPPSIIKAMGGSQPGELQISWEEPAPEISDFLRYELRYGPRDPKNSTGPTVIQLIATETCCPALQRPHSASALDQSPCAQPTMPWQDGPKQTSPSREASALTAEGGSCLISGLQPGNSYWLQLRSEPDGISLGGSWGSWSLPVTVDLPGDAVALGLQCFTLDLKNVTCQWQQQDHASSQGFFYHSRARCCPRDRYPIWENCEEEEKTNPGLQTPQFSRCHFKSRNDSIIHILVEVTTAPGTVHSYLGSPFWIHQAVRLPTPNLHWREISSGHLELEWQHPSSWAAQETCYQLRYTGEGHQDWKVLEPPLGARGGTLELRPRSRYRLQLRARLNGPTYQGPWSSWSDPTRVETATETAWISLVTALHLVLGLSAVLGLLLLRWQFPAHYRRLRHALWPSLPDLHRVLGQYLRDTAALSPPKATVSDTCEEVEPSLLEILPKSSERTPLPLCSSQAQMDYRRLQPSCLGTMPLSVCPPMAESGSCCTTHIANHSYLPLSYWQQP
Assay: cell-based or functional assay

Binder | EC50 on 32Dcl23/Mpl
B1 | 13 pM
B2 | 6 pM
B3 | 15 pM
B4 | 10 pM
B5 | 12 pM
